Test results reported in IntAct's records for PubMed 16374512.

B1: Retinoblastoma-associated protein (Homo sapiens), P06400 (parent)
chain: MPPKTPRKTAATAAAAAAEPPAPPPPPPPEEDPEQDSGPEDLPLVRLEFEETEEPDFTALCQKLKIPDHVRERAWLTWEKVSSVDGVLGGYIQKKKELWGICIFIAAVDLDEMSFTFTELQKNIEISVHKFFNLLKEIDTSTKVDNAMSRLLKKYDVLFALFSKLERTCELIYLTQPSSSISTEINSALVLKVSWITFLLAKGEVLQMEDDLVISFQLMLCVLDYFIKLSPPMLLKEPYKTAVIPINGSPRTPRRGQNRSARIAKQLENDTRIIEVLCKEHECNIDEVKNVYFKNFIPFMNSLGLVTSNGLPEVENLSKRYEEIYLKNKDLDARLFLDHDKTLQTDSIDSFETQRTPRKSNLDEEVNVIPPHTPVRTVMNTIQQLMMILNSASDQPSENLISYFNNCTVNPKESILKRVKDIGYIFKEKFAKAVGQGCVEIGSQRYKLGVRLYYRVMESMLKSEEERLSIQNFSKLLNDNIFHMSLLACALEVVMATYSRSTSQNLDSGTDLSFPWILNVLNLKAFDFYKVIESFIKAEGNLTREMIKHLERCEHRIMESLAWLSDSPLFDLIKQSKDREGPTDHLESACPLNLPLQNNHTAADMYLSPVRSPKKKGSTTRVNSTANAETQATSAFQTQKPLKSTSLSLFYKKVYRLAYLRLNTLCERLLSEHPELEHIIWTLFQHTLQNEYELMRDRHLDQIMMCSMYGICKVKNIDLKFKIIVTAYKDLPHAVQETFKRVLIKEEEYDSIIVFYNSVFMQRLKTNILQYASTRPPTLSPIPHIPRSPYKFPSSPLRIPGGNIYISPLKSPYKISEGLPTPTKMTPRSRILVSIGESFGTSEKFQKINQMVCNSDRVLKRSAEGSNPPKPLKKLRFDIEGSDEADGSKHLPGESKFQQKLAEMTSTRTRMQKQKMNDSMDTSNKEEK

Key:
e2f1_human E2F1, Q01094 [1] = variants of: B1; conditions: with e2f1_human E2F1, Q01094
e2f1_human E2F1, Q01094 [2] = variants of: B1; conditions: with e2f1_human E2F1, Q01094; remark: listed apart in the source

Chain of e2f1_human E2F1, Q01094 (Q01094 whole entry): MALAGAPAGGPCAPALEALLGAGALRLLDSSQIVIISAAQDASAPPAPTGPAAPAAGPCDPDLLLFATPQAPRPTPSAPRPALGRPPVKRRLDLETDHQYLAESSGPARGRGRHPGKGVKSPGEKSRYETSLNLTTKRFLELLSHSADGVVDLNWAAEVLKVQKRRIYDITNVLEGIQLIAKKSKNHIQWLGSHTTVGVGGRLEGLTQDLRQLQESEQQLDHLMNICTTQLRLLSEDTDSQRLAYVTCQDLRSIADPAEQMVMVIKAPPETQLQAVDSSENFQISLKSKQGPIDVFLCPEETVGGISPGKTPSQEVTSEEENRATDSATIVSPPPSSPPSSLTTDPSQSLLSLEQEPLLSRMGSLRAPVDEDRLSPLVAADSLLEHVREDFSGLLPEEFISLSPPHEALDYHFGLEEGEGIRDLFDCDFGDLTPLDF

| Variant | effect of a mutation on the interaction (e2f1_human E2F1, Q01094 [1]) | effect of a mutation on the interaction (e2f1_human E2F1, Q01094 [2]) |
| --- | --- | --- |
| K873Q | disrupting interaction | decreasing interaction |
| K874Q | disrupting interaction | decreasing interaction |
